T1: Ebola Zaire 1976 (Mayinga isolate) virus glycoprotein (GP) (Ebola virus, Zaire 1976 strain (isolate …, UniProt Q05320 33-676))
T1 sequence: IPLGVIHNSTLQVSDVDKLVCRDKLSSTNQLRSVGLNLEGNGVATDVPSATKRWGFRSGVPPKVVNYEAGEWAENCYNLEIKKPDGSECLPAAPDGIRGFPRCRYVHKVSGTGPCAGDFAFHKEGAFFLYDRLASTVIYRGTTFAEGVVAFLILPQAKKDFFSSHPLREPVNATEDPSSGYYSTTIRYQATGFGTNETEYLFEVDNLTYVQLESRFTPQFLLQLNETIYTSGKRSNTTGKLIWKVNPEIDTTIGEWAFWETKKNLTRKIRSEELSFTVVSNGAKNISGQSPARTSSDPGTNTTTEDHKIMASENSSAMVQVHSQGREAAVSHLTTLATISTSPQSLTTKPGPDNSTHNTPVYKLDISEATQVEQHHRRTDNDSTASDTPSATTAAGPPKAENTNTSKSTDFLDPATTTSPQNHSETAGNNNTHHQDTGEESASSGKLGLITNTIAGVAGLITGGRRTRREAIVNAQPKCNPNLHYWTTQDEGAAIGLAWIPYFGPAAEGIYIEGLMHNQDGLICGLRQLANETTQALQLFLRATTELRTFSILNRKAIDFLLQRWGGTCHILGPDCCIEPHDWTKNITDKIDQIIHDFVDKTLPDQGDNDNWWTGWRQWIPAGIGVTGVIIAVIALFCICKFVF

T2: Ebola Ivory Coast virus glycoprotein (GP) (Ebola virus, Ivory Coast strain, UniProt Q66810 33-676)
T2 sequence: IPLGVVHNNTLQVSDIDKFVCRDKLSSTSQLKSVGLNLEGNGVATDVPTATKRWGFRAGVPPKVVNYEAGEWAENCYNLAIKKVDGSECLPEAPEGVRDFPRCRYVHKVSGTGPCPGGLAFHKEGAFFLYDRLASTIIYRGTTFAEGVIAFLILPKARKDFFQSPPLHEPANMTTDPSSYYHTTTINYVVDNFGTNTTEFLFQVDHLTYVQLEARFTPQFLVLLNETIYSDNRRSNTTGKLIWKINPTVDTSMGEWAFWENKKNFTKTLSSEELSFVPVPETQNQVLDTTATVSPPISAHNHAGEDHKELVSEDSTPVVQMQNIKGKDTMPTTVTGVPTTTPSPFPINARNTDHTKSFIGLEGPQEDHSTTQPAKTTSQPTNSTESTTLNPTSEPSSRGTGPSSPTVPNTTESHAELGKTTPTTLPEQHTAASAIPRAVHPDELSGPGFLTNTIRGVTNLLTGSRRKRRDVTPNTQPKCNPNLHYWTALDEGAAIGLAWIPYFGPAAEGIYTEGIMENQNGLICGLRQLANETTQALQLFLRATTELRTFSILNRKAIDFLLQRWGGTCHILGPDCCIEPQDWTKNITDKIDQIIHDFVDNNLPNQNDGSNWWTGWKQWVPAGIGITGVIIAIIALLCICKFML

T3: Ebola Sudan (Boniface) virus glycoprotein (GP) (Ebola virus, Sudan strain (isolate …, UniProt Q66814 33-676))
T3 sequence: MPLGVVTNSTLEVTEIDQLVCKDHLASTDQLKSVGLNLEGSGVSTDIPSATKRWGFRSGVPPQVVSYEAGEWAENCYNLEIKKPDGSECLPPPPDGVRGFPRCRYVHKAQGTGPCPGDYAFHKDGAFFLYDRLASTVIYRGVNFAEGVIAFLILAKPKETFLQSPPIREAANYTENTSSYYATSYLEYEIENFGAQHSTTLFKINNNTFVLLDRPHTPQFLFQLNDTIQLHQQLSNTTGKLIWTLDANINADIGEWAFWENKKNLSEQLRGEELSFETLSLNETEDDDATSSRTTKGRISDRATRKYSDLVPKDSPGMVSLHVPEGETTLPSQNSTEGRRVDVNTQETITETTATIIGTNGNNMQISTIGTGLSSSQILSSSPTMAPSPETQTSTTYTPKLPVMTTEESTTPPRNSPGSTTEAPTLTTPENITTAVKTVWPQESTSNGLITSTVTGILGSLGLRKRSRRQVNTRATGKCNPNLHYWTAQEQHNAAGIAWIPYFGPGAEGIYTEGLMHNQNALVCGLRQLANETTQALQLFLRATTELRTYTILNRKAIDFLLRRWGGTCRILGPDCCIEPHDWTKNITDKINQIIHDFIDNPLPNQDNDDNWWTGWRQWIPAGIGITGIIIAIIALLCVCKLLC

T4: sGP (secreted glycoprotein) from EboGP-VRP-infected cells (Ebola virus, Zaire strain, Mayinga …, UniProt P60170 33-324)
T4 sequence: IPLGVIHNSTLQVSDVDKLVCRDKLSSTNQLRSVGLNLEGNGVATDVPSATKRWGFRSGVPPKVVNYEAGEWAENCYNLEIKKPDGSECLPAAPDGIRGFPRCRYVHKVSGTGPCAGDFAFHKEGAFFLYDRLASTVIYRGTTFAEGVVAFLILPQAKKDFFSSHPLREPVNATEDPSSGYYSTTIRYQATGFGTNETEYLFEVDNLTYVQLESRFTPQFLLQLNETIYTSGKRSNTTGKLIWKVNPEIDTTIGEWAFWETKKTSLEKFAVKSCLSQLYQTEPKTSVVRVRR


Assays:
[1] = biological target: T1, Ebola Zaire 1976 (Mayinga isolate) …; assay: ELISA on virions
[2] = biological target: T2, Ebola Ivory Coast virus glycoprotein …; assay: ELISA on irradiated sucrose-purified virions
[3] = biological target: T3, Ebola Sudan (Boniface) virus …; assay: ELISA on irradiated sucrose-purified virions
[4] = biological target: T4, sGP (secreted glycoprotein) from …; assay: radioimmunoprecipitation from infected-cell supernatants

Binder	binding result [1]	binding result [2]	binding result [3]	binding result [4]
MAb EGP 6D8-1-2 (antibody, V domains shown) VH: DVKLLESGGGLVQPGGSLKLSCAASGFDFSRYWMSWVRQAPGKGLEWIGEINPDSSTINYTPSLKDKFIISRDNAKNTLYLQMSKVRSEDTALYYCTRQGYGYNYWGQGTTLIVSS VL: DVLLTQIPLSLPVSLGDQASISCRSSQSIVHSNGNTYLEWYLQKPGQSPKLLIYKASNRFSGVPDRFSGSGSGTDFTLKINRVEAEDLGVYYCLQGSHVPSTFGGGTKLEIKR	binds	no binding	no binding	no binding
MAb EGP 13F6-1-2 (antibody, V domains shown) VH: EVQVVESGGGLVKPGGSLKLSCAASGFAFSSYDMSWVRQTPEKRLEWVAYISRGGGYTYYPDTVKGRFTISRDNAKNTLYLQMSSLKSEDTAMYYCSRHIYYGSSHYYAMDYWGQGTSVTVSS VL: QLVLTQSSSASFSLGASAKLTCTLSRQHSTYTIEWYQQQPLKPPRYVMELKKDGSHSTGDGIPDRFSGSSSGADRYLSISNIQPEDEAIYICGVGDTIKEQFVYVFGGGTKVTVLG	–	no binding	no binding	no binding

Reference: patent US20040053865A1 (UNITED STATES OF AMERICA AS REPRESENTED BY THE SECRETARY OF …, published 2004)
